Test results: patent US6855515B1, “Autoantigenic fragments, methods and assays” (Merck & Co., Inc., priority 1998, dated 2005)

B1: Fibrilliarin: autoantigen (protein)
chain: MKPGFSPRGGGFGGRGGFGDRGGRGGRGGFGGGRGRGGGFRGRGRGGGGGGGGGGGGGRGGGGFHSGGNRGRGRGGKRGNQSGKNVMVEPHRHEGVFICRGKEDALVTKNLVPGESVYGEKRVSISEGDDKIEYRAWNPFRSKLAAAILGGVDQIHIKPGAKVLYLGAASGTTVSHVSDIVGPDGLVYAVEFSHRSGRDLINLAKKRTNIIPVIEDARHPHKYRMLIAMVDVIFADVAQPDQTRIVALNAHTFLRNGGHFVISIKANCIDSTASAEAVFASEVKKMQQENMKPQEQLTLEPYERDHAVVVGVYRPPPKVKN
B2: La: autoantigen (protein, UniProt P05455 1-408, looked up)
Lupus La protein: MAENGDNEKMAALEAKICHQIEYYFGDFNLPRDKFLKEQIKLDEGWVPLEIMIKFNRLNRLTTDFNVIVEALSKSKAELMEISEDKTKIRRSPSKPLPEVTDEYKNDVKNRSVYIKGFPTDATLDDIKEWLEDKGQVLNIQMRRTLHKAFKGSIFVVFDSIESAKKFVETPGQKYKETDLLILFKDDYFAKKNEERKQNKVEAKLRAKQEQEAKQKLEEDAEMKSLEEKIGCLLKFSGDLDDQTCREDLHILFSNHGEIKWIDFVRGAKEGIILFKEKAKEALGKAKDANNGNLQLRNKEVTWEVLEGEVEKEALKKIIEDQQESLNKWKSKGRRFKGKGKGNKAAQPGSGKGKVQFQGKKTKFASDDEHDEHDENGATGPVKRAREETDKEEPASKQQKTENGAGDQ
B3: CENP B: autoantigen (protein)
chain: GPKRRQLTFREKSRIIQEVEENPDLRKGEIARRFNIPPSTLSTILKNKRAILASERKYGVASTCRKTNKLSPYDKLEGLLIAWFQQIRAAGLPVKGIILKEKALRIAEELGMDDFTASNGWLDRFRRRHGVVSCSGVARARARNAAPRTPAAPASPAAVPSEGSGGSTTGWRAREEQPPSVAEGYASQDVFSATETSLWYDFLPDQAAGLCGGDGRPRQATQRLSVLLCANADGSEKLPPLVAGKSAKPRAGQAGLPCDYTANSKGGVTTQALAKYLKALDTRMAAESRRVLLLAGRLAAQSLDTSGLRHVQLAFFPPGTVHPLERGVVQQVKGHYRQAMLLKAMAALEGQDPSGLQLGLTEALHFVAAAWQAVEPSDIAACFREAGFGGGPNATITTSLKSEGEEEEEEEEEEEEEEGEGEEEEEEGEEEEEEGGEGEELGEEEEVEEEGDVDSDEEEEEDEESSSEGLEAEDWAQGVVEAGGSFGAYGAQEEAQCPTLHFLEGGEDSDSDSEEEDDEEEDDEDEDDDDDEEDGDEVPVPSFGEAMAYFAMVKRYLTSFPIDDRVQSHILHLEHDLVHVTRKNHARQAGVRGLGHQS
B4: Histidyl tRNA synthetase (Jo-1): autoantigen targeted in autoimmune myositis (protein)
chain: AERAALEELVKLQGERVRGLKQQKASAELIEEEVAKLLKLKAQLGPDESKQKFVLKTPKGTRDYSPRQMAVREKVFDVIIRCFKRHGAEVIDTPVFELKETLMGKYGEDSKLIYDLKDQGGELLSLRYDLTVPFARYLAMNKLTNIKRYHIAKVYRRDNPAMTRGRYREFYQCDFDIAGNFDPMIPDAECLKIMCEILSSLQIGDFLVKVNDRRILDGMFAICGVSDSKFRTICSSVDKLDKVSWEEVKNEMVGEKGLAPEVADRIGDYVQQHGGVSLVEQLLQDPKLSQNKQALEGLGDLKLLFEYLTLFGIDDKISFDLSLARGLDYYTGVIYEAVLLQTPAQAGEEPLGVGSVAAGGRYDGLVGMFDPKGRKVPCVGLSIGVERIFSIVEQRLEALEEKIRTTETQVLVASAQKKLLEERLKLVSELWDAGIKAELLYKKNPKLLNQLQYCEEAGIPLVAIIGEQELKDGVIKLRSVTSREEVDVRREDLVEEIKRRTGQPLCIC
B5: NOR-90: autoantigen (protein, UniProt P17480 1-764, looked up)
Nucleolar transcription …: MNGEADCPTDLEMAAPKGQDRWSQEDMLTLLECMKNNLPSNDSSKFKTTESHMDWEKVAFKDFSGDMCKLKWVEISNEVRKFRTLTELILDAQEHVKNPYKGKKLKKHPDFPKKPLTPYFRFFMEKRAKYAKLHPEMSNLDLTKILSKKYKELPEKKKMKYIQDFQREKQEFERNLARFREDHPDLIQNAKKSDIPEKPKTPQQLWYTHEKKVYLKVRPDATTKEVKDSLGKQWSQLSDKKRLKWIHKALEQRKEYEEIMRDYIQKHPELNISEEGITKSTLTKAERQLKDKFDGRPTKPPPNSYSLYCAELMANMKDVPSTERMVLCSQQWKLLSQKEKDAYHKKCDQKKKDYEVELLRFLESLPEEEQQRVLGEEKMLNINKKQATSPASKKPAQEGGKGGSEKPKRPVSAMFIFSEEKRRQLQEERPELSESELTRLLARMWNDLSEKKKAKYKAREAALKAQSERKPGGEREERGKLPESPKRAEEIWQQSVIGDYLARFKNDRVKALKAMEMTWNNMEKKEKLMWIKKAAEDQKRYERELSEMRAPPAATNSSKKMKFQGEPKKPPMNGYQKFSQELLSNGELNHLPLKERMVEIGSRWQRISQSQKEHYKKLAEEQQKQYKVHLDLWVKSLSPQDRAAYKEYISNKRKSMTKLRGPNPKSSRTTLQSKSESEEDDEEDEDDEDEDEEEEDDENGDSSEDGGDSSESSSEDESEDGDENEEDDEDEDDDEDDDEDEDNESEGSSSSSSSSGDSSDSDSN
B6: Isoleucyl tRNA synthetase (O.J.): autoantigen targeted in autoimmune myositis (protein)
chain: MLQQVPENINFPAEEEKILEFWTEFNCFQECLKQSKHKPKFTFYDGPPFATGLPHYGHILAGTIKDIVTRYAHQSGFHVDRRFGWDCHGLPVEYEIDKTLGIRGPEDVAKMGITEYNNQCRAIVMRYSAEWKSTVSRLGRWIDFDNDYKTLYPQFMESVWWVFKQLYDKGLVYRGVKVMPFSTACNTPLSNFESHQNYKDVQDPSVFVTFPLEEDETVSLVAWTTTPWTLPSNLAVCVNPEMQYVKIKDVARGRLLILMEARLSALYKLESDYEILERFPGAYLKGKKYRPLFDYFLKCKENGAFTVLVDNYVKEEEGTGVVHQAPYFGAEDYRVCMDFNIIRKDSLPVCPVDASGCFTTEVTDFAGQYVKDADKSIIRTLKEQGRLLVATTFTHSYPFCWRSDTPLIYKAVPSWFVRVENMVDQLLRNNDLCYWVPELVREKRFGNWLKDARDWTISRNRYWGTPIPLWVSDDFEEVVCIGSVAELEELSGAKISDLHRESVDHLTIPSRCGKGSLHRISEVFDCWFESGSMPYAQVHYPFENKREFEDAFPADFIAEGIDQTRGWFYTLLVLATALFGQPPFKNVIVNGLVLASDGQKMSKRKKNYPDPVSIIQKYGADALRLYLINSPVVRAENLRFKEEGVRDVLKDVLLPWYNAYRFLIQNVLRLQKEEEIEFLYNENTVRESPNITDRWILSFMQSLIGFFETEMAAYRLYTVVPRLVKFVDILTNWYVRMNRRRLKGENGMEDCVMALETLFSVLLSLCRLMAPYTPFLTELMYQNLKVLIDPVSVQDKDTLSIHYLMLPRVREELIDKKTESAVSQMQSVIELGRVIRDRKTIPIKYPLKEIVVIHQDPEALKDIKSLEKYIIEELNVRKVTLSTDKNKYGIRLRAEPDHMVLGKRLKGAFKAVMTSIKQLSSEELEQFQKTGTIVVEGHELHDEDIRLMYTFDQATGGTAQFEAHSDAQALVLLDVTPDQSMVDEGMAREVINRIQKLRKKCNLVPTDEITVYYKAKSEGTYLNSVIESHTEFIFTTIKAPLKPYPVSPSDKVLIQEKTQLKGSELEITLTRGSSLPGPACAYVNLNICANGSEQGGVLLLENPKGDNRLDLLKLKSVVTSIFGVKNTELAVFHDETEIQNQTDLLSLSGKTLCVTAGSAPSLINSSSTLLCQYINLQLLNAKPQECLMGTVGTLLLENPLGQNGLTHQGLLYEAAKVFGLRSRKLKLFLNETQTQEITEDIPVKTLNMKTVYVSVLPTTADF

These molecules were tested against T1, granzyme B (Homo sapiens, UniProt P10144) (assay: Susceptibility of autoantigens to cleavage by purified granzyme B (HeLa lysate immunoblot or immunoprecipitates)). Conditions: in vitro.
T1 construct: Some of these preparations were used for the further purification of granzyme B (Tschopp, 1994); endogenous in cells; host or cells: YT cells (human NK cell line), cytoplasmic granules
Type: biochemical
Description: To determine whether susceptibility to direct cleavage by granzyme B was an isolated feature of PARP, NuMA and DNA-PKcs shown above, or whether it was a more general feature of autoantigens, a variety of well-defined autoantigens selected from across the spectrum of systemic autoimmune diseases were tested for susceptibility to cleavage by purified granzyume B. The efficiency of cleavage of the substrates by purified granzyme B was also noted (Table 3). Initially, a series of autoantibodies of well-defined specificity were used to immunoblot lysates of HeLa cells that had been incubated in vitro with or without granzyme B. Lysates were pre-treated with iodoacetamide (IAA) to prevent interference by endogenous caspase activity.
To perform these studies, HeLa cells were radiolabeled with [^35S] methionine/cysteine, and proteins were immunoprecipitated using human autoantibodies. Protein A-agarose beads containing washed precipitated proteins were resuspended in buffer supporting the activity of granzyme B, and incubated in the absence or presence of added purified granzyme B. Reaction products were visualized using SDS-PAGE and fluorography. To confirm the validity of this approach, several different autoantigens known to be cleaved by granzyme B, as well as several autoantigens and non-autoantigens that are not cleaved by granzyme B, were tested. Using autoantibodies that both immunoblot and immunprecipitate, the cleavage profiles obtained using granzyme B to cleave molecules in lysates (followed by detection with immunoblotting), and after immunoprecipitation (from [^35S]methionine-labeled HeLa lysate) were compared. Identical results were obtained using these 2 methods for cleaved autoantigens (topoisomerase-1, Mi-2, RNA polymerase II large subunit, Ku-70, PARP, and NOR-90), uncleaved autoantigens (Ku-80, Ro 60k), and control substrates (β-tubulin, vinculin). […] Of note, all these additional autoantigens (with the exception of RNA polymerase I) are targeted in autoimmune myositis. However, two other tRNA synthetases (threonyl tRNA synthetase and glycyl tRNA synthetase) that are also autoantigens in autoimmune myositis, were not cleaved using this approach.

T1 sequence (P10144 21-247): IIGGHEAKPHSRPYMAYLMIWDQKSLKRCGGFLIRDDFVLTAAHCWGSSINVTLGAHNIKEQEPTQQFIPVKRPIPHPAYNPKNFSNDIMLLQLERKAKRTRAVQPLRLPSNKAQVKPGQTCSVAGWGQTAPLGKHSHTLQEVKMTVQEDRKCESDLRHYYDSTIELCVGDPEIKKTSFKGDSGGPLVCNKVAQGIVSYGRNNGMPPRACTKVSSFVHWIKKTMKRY

Molecule	susceptibility to cleavage by granzyme B
B1	efficiently cleaved
B2	efficiently cleaved
B3	efficiently cleaved
B4	cleaved
B5	efficiently cleaved
B6	cleaved
